± gives the uncertainty stated by the source.
Experiment: protein stability index of a GFP-peptide fusion (yeast GPS) (PSI 1-4); higher = more stable; sorted into four equal gates, so the index is relative within each strain
Procedure, shortened: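 Plasmids isolated from each sorting gate were PCR-amplified and Illumina-sequenced, and barcodes assigned the reads to strains. The gates, four of equal size, were set by GFP/Cherry fluorescence ratio on mid-log cultures in leucine-free medium. These cultures were yeast carrying a pooled library of tiled 17-residue yeast protein peptides fused downstream of GFP on a plasmid that also expresses Cherry. The protein stability index is the sum of every gate's read frequency times its gate number.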

Work on LPDPILKNFLSYESLKK [MCD1] yielded a protein stability index (doa10∆) of 3 ± 0.094, a protein stability index (pdr5∆) of 3.14 ± 0.091 and a protein stability index (san1∆) of 3.34 ± 0.046. For the same sequence, the protein stability index (ubr1∆) was 3.37 ± 0.058.

VPLIKVADAKQLGEWAG [RPS12] gave a protein stability index (doa10∆) of 3.17 ± 0.21, a protein stability index (pdr5∆) of 3.49 ± 0.23 and a protein stability index (ubr1∆) of 3.17 ± 0.12.

MQEKAAHIAKNLINLSI [YCS4] showed a protein stability index (doa10∆) of 2.15 ± 0.15, a protein stability index (pdr5∆) of 1.55 ± 0.2 and a protein stability index (ubr1∆) of 1.46 ± 0.093.

Sequence DQYLWYEADQRKLFPNW [PRP8] has a protein stability index (ubr1∆) of 3.13 ± 0.19.

With SSNILEDILYYSTCPSE [SRB8] the protein stability index (doa10∆) was 2.4 ± 0.1, the protein stability index (pdr5∆) was 2.4 ± 0.075 and the protein stability index (san1∆) was 2.77 ± 0.059. It also gave a protein stability index (ubr1∆) of 2.54 ± 0.062.

In the case of SKSNLIHNYDSKKSTIT [RGR1], the protein stability index (doa10∆) is reported as 3.03 ± 0.067, the protein stability index (pdr5∆) is reported as 3.03 ± 0.054 and the protein stability index (san1∆) is reported as 3.05 ± 0.04. It also gave a protein stability index (ubr1∆) of 3.11 ± 0.038.

Sequence VTQKDICILGILDLCQL [CSI1] has a protein stability index (doa10∆) of 2.59 ± 0.091, a protein stability index (pdr5∆) of 2.85 ± 0.072 and a protein stability index (san1∆) of 2.24 ± 0.11. For the same sequence, the protein stability index (ubr1∆) was 1.29 ± 0.15.

In the case of YVSALKRINKFLDSVHK [POP7], the protein stability index (doa10∆) is reported as 1.91 ± 0.049, the protein stability index (pdr5∆) is reported as 1.56 ± 0.037 and the protein stability index (san1∆) is reported as 2 ± 0.068. The protein stability index (ubr1∆) was 1.8 ± 0.034.

KGKDFEITAKEVYDFTH [FAS1] gave a protein stability index (doa10∆) of 3.09 ± 0.059, a protein stability index (pdr5∆) of 3.23 ± 0.055 and a protein stability index (san1∆) of 2.97 ± 0.052. The protein stability index (ubr1∆) was 3.05 ± 0.046.

For ANTNSVTSMEAAREKKI [YIL149C/MLP2], the protein stability index (doa10∆) was 3 ± 0.077, the protein stability index (pdr5∆) was 3.05 ± 0.078 and the protein stability index (san1∆) was 3 ± 0.049. The protein stability index (ubr1∆) was 3.01 ± 0.047.

Work on DRKIEFPPPSVAARAEI [RPT6] yielded a protein stability index (doa10∆) of 2.02 ± 0.094, a protein stability index (pdr5∆) of 2.36 ± 0.11 and a protein stability index (san1∆) of 1.83 ± 0.096. For the same sequence, the protein stability index (ubr1∆) was 1.39 ± 0.052.

In the case of LGVIHKGNLLEGKKVMA [RPN2], the protein stability index (doa10∆) is reported as 1.37 ± 0.07, the protein stability index (pdr5∆) is reported as 1.33 ± 0.048 and the protein stability index (san1∆) is reported as 1.17 ± 0.11. It also gave a protein stability index (ubr1∆) of 1.22 ± 0.057.

QNSSKIVNVLSKCLNLI [SWI3] showed a protein stability index (doa10∆) of 2.21 ± 0.057, a protein stability index (pdr5∆) of 1.98 ± 0.048 and a protein stability index (san1∆) of 1.96 ± 0.093. For the same sequence, the protein stability index (ubr1∆) was 1.31 ± 0.044.

Sequence VIIRRLKTRDWIVVLPW [POP1] has a protein stability index (doa10∆) of 1.9 ± 0.072, a protein stability index (pdr5∆) of 1.46 ± 0.13 and a protein stability index (san1∆) of 1.98 ± 0.15. For the same sequence, the protein stability index (ubr1∆) was 1.82 ± 0.057.

Work on ASLTAARTAANSIYCPT [RPN6] yielded a protein stability index (doa10∆) of 2.53 ± 0.19, a protein stability index (pdr5∆) of 2.66 ± 0.1 and a protein stability index (san1∆) of 2.84 ± 0.093. The protein stability index (ubr1∆) was 2.49 ± 0.045.

In the case of TEDGWIYHGNHDVGELF [PRE2], the protein stability index (doa10∆) is reported as 2.05 ± 0.057, the protein stability index (pdr5∆) is reported as 1.84 ± 0.049 and the protein stability index (san1∆) is reported as 2 ± 0.074. The protein stability index (ubr1∆) was 2.33 ± 0.043.

With KKIAQRERRAALTDFER [RPL14A] the protein stability index (doa10∆) was 3.09 ± 0.3 and the protein stability index (pdr5∆) was 3.46 ± 0.19.

PPPYVKFFTQSNLEKLP [MED7] gave a protein stability index (doa10∆) of 2.25 ± 0.036, a protein stability index (pdr5∆) of 2.29 ± 0.04 and a protein stability index (san1∆) of 2.41 ± 0.049. For the same sequence, the protein stability index (ubr1∆) was 2.49 ± 0.027.

In the case of SENHTESDAPPKSTAPI [YOR098C/NUP1], the protein stability index (doa10∆) is reported as 2.75 ± 0.058, the protein stability index (pdr5∆) is reported as 2.24 ± 0.054 and the protein stability index (san1∆) is reported as 2.51 ± 0.058. The protein stability index (ubr1∆) was 2.47 ± 0.06.

With MQVLNTKSETKQENETM [MED11] the protein stability index (doa10∆) was 2.79 ± 0.081, the protein stability index (pdr5∆) was 2.16 ± 0.11 and the protein stability index (san1∆) was 1.41 ± 0.26. For the same sequence, the protein stability index (ubr1∆) was 2 ± 0.092.

Sequence TKSHNTVQSWLCDLFVN [NUT1] has a protein stability index (doa10∆) of 1.55 ± 0.036, a protein stability index (pdr5∆) of 1.46 ± 0.044 and a protein stability index (san1∆) of 1.4 ± 0.09. The protein stability index (ubr1∆) was 1.54 ± 0.037.

In the case of DPDLGLDLMFDEVYVQN [YJL039C/NUP192], the protein stability index (doa10∆) is reported as 3.06 ± 0.13, the protein stability index (pdr5∆) is reported as 3.04 ± 0.11 and the protein stability index (san1∆) is reported as 2.93 ± 0.11. It also gave a protein stability index (ubr1∆) of 2.85 ± 0.038.

With LLERTREIHNEAESQLR [FAS2] the protein stability index (doa10∆) was 2.97 ± 0.12, the protein stability index (pdr5∆) was 2 ± 0.087 and the protein stability index (san1∆) was 2.21 ± 0.22. The protein stability index (ubr1∆) was 2.54 ± 0.08.

Work on WDLSVEDALYLGKRSIL [PRE2] yielded a protein stability index (doa10∆) of 3.4 ± 0.06, a protein stability index (pdr5∆) of 3.34 ± 0.056 and a protein stability index (san1∆) of 3.17 ± 0.064. For the same sequence, the protein stability index (ubr1∆) was 3.39 ± 0.048.

HTIFSDVCKTRFNHLVT [YML031W/NDC1] gave a protein stability index (doa10∆) of 2.27 ± 0.045, a protein stability index (pdr5∆) of 2.09 ± 0.044 and a protein stability index (san1∆) of 2.15 ± 0.051. The protein stability index (ubr1∆) was 2.04 ± 0.034.

QFNKILPEPTEGFAADD [FAS1] gave a protein stability index (doa10∆) of 2.79 ± 0.067, a protein stability index (pdr5∆) of 3.07 ± 0.08 and a protein stability index (san1∆) of 2.91 ± 0.081. It also gave a protein stability index (ubr1∆) of 2.77 ± 0.11.

With KNGALVSNILSAFKFIH [YJL039C/NUP192] the protein stability index (doa10∆) was 1.71 ± 0.055, the protein stability index (pdr5∆) was 1.65 ± 0.046 and the protein stability index (san1∆) was 1.51 ± 0.065. It also gave a protein stability index (ubr1∆) of 1.3 ± 0.036.

— the supplement of paper PMC9732359
